{"source": "patent US20210332109A1", "binders": {"B1": {"name": "Antibody 9 (antibody, V domains shown)", "VH": "EVQLEESGPELVKPGASVKIPCKASGYTFTDYNMDWVKQNHGKSLEWIGEINPENGGTIYNQTFKGKATLTVDKSSSTAYMELRSLTSEDTAVYYCARSPWFTYWGQGTLVTVSA", "VL": "DIVLTQTTASLSMAIGEIVTIRCITSTDIGDDMNWYQQKPGEPPKFLISEGNTLRPGVPSRFSSSGYGTDFVFTVENILSEDVADYYCLQSDNLPHVRLGDKVGNK"}}, "key": {"[1]": {"target": "the antibody (of the immunochromatographic analysis device used in Test Example 8)", "test": "competitive inhibition in the immunochromatographic sandwich on VZV gE recombinant protein, P3 added; row 5 ng/mL"}, "[2]": {"target": "the antibody (of the immunochromatographic analysis device used in Test Example 8)", "test": "competitive inhibition in the immunochromatographic sandwich on VZV gE recombinant protein, P3 added; row 0.5 ng/mL"}, "[3]": {"target": "the antibody (of the immunochromatographic analysis device used in Test Example 8)", "test": "competitive inhibition in the immunochromatographic sandwich on VZV gE recombinant protein, P2 added; row 0.5 ng/mL"}, "[4]": {"target": "the antibody (of the immunochromatographic analysis device used in Test Example 8)", "test": "competitive inhibition in the immunochromatographic sandwich on VZV gE recombinant protein, P2 added; row 5 ng/mL"}, "[5]": {"target": "the antibody (of the immunochromatographic analysis device used in Test Example 8)", "test": "competitive inhibition in the immunochromatographic sandwich on VZV gE recombinant protein, P1 added; row 5 ng/mL"}, "[6]": {"target": "the antibody (of the immunochromatographic analysis device used in Test Example 8)", "test": "competitive inhibition in the immunochromatographic sandwich on VZV gE recombinant protein, P1 added; row 0.5 ng/mL"}, "[7]": {"target": "the antibody (of the immunochromatographic analysis device used in Test Example 8)", "test": "competitive inhibition in the immunochromatographic sandwich on VZV gE recombinant protein, P4 added; row 5 ng/mL"}, "[8]": {"target": "the antibody (of the immunochromatographic analysis device used in Test Example 8)", "test": "competitive inhibition in the immunochromatographic sandwich on VZV gE recombinant protein, P4 added; row 0.5 ng/mL"}, "[9]": {"target": "VZV gE recombinant protein (CalBioreagents, Inc.) (varicella-zoster virus) (UniProt P09259)", "sequence (P09259 31-538 limits assumed)": "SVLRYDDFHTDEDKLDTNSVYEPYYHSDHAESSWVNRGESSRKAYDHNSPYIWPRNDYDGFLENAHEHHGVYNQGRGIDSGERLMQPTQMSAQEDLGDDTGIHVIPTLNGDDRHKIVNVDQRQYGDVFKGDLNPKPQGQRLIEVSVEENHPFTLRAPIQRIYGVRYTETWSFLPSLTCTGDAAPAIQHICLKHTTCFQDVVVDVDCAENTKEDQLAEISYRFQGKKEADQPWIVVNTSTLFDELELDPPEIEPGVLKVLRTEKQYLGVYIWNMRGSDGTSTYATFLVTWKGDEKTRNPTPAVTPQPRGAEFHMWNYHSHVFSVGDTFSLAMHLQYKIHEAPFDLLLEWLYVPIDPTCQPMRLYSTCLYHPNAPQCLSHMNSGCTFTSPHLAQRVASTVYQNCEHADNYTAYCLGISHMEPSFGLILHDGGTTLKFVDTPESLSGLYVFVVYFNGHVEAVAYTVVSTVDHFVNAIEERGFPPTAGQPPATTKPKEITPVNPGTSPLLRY", "test": "immunochromatographic sandwich; row antibody gold-labelled, Antibody 4 on the detection line"}, "[10]": {"target": "VZV gE recombinant protein (CalBioreagents, Inc.) (varicella-zoster virus) (UniProt P09259)", "test": "immunochromatographic sandwich; row antibody gold-labelled, Antibody 9 on the detection line"}, "[11]": {"target": "VZV gE recombinant protein (CalBioreagents, Inc.) (varicella-zoster virus) (UniProt P09259)", "test": "immunochromatographic sandwich; row antibody gold-labelled, Antibody 18 on the detection line"}, "[12]": {"target": "VZV gE recombinant protein (CalBioreagents, Inc.) (varicella-zoster virus) (UniProt P09259)", "test": "immunochromatographic sandwich; row antibody gold-labelled, Antibody 3 on the detection line"}, "[13]": {"target": "VZV gE recombinant protein (CalBioreagents, Inc.) (varicella-zoster virus) (UniProt P09259)", "test": "immunochromatographic sandwich; row antibody gold-labelled, Antibody 5 on the detection line"}, "[14]": {"target": "VZV gE recombinant protein (CalBioreagents, Inc.) (varicella-zoster virus) (UniProt P09259)", "test": "immunochromatographic sandwich; row antibody gold-labelled, Antibody 2 on the detection line"}}, "data": [{"binder": "SSWVNRGESSRKAYDHNSPY", "values": [{"measurement": "color development intensity", "setting": "[1]", "value": 677, "unit": "mAbs"}, {"measurement": "color development intensity", "setting": "[2]", "value": 128, "unit": "mAbs"}]}, {"binder": "YYHSDHAESSWVNRGESSR", "values": [{"measurement": "color development intensity", "setting": "[3]", "value": 127, "unit": "mAbs"}, {"measurement": "color development intensity", "setting": "[4]", "value": 697, "unit": "mAbs"}]}, {"binder": "NSVYEPYYHSDHAESSWVNR", "values": [{"measurement": "color development intensity", "setting": "[5]", "value": 726, "unit": "mAbs"}, {"measurement": "color development intensity", "setting": "[6]", "value": 136, "unit": "mAbs"}]}, {"binder": "ESSRKAYDHNSPYIWPRNDY", "values": [{"measurement": "color development intensity", "setting": "[7]", "value": 596, "unit": "mAbs"}, {"measurement": "color development intensity", "setting": "[8]", "value": 149, "unit": "mAbs"}]}, {"binder": "B1", "values": [{"measurement": "color development intensity", "setting": "[9]", "value": 5}, {"measurement": "color development intensity", "setting": "[10]", "value": 29}, {"measurement": "color development intensity", "setting": "[11]", "value": 218}, {"measurement": "color development intensity", "setting": "[12]", "value": 53}, {"measurement": "color development intensity", "setting": "[13]", "value": 52}, {"measurement": "color development intensity", "setting": "[14]", "value": 39}]}]}
